System: MS2 coat protein
Assay: apparent KD of MS2 coat protein; designed switch direction (-1 OFF switch, 1 ON switch): -1; higher = weaker reporter binding
How it was run: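 On Illumina chips, designed RNA switches with common flanks were made by stalled E. coli RNA polymerase. Titrations with SNAP-549-labelled MS2 coat protein, doubling from 0.7 or 1.5 nM to 3 µM, were done with no input, with 200 uM small-molecule ligand, or with an oligonucleotide input. Apparent KD is the median per design over clusters, from curve fits of normalised cluster fluorescence.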

[1] = Eterna round: R95, input ligand: FMN 200 uM
[2] = Eterna round: R95, input ligand: microRNA oligo, concentration not stated
[3] = Eterna round: R95, input ligand: none
[4] = input ligand: microRNA oligo, concentration not stated

| Sequence | apparent KD of MS2 coat protein [2] [nM] | apparent KD of MS2 coat protein (input ligand: FMN 200 uM) [nM] | apparent KD of MS2 coat protein (input ligand: none) [nM] | other results |
| --- | --- | --- | --- | --- |
| AGAUCACAUGAGGAUCACCCAUGUCAGGAUAUGAUACUAUGUACUUCGGUACAUAGUAUCAGAAGGGACAUAAA [Ex1-3: 69] (puzzle: Exclusion 1) | 140 | – | – | apparent KD of MS2 coat protein [1]: 31.5 nM; apparent KD of MS2 coat protein [3]: 89.2 nM |
| GGCCCGGGAGGAUAUACAUGAGGAUCACCCAUGUAGCCCGGCCCGAUCGGGCCGGGCUGUAGAAGGCCCGGGCC [-49.2, -46.3 kcal, 19% A] (Eterna round: R97, puzzle: Exclusion 3) | – | 16.9 | 13 | – |
| UACAUGAGGAUCACCCAUGUUUUGUCGUGUAUGGUAUUUAUCUAGGAUAUCAUUUAAUUUAUUUAUGAGAAGGAGAAUAUUAAU [JMF's solution 99] (Eterna round: R96, puzzle: Exclusion NG 3) | – | 29.8 | 31.1 | apparent KD of MS2 coat protein [4]: 28 nM |
| UACUAUAAGGAGGAUAUCGUAUCGGAGACGAUACGAGAAGGCUUAACAUGAGGAUCACCCAUGUUCUUCAAUAU [Mat - Exclusion 6 - Eli Mod - D91] (puzzle: Exclusion 6) | 14.8 | – | – | – |
| GGAAGGUGAGGAUAUACUAAGCCGGAAACGGCAGGUGAGAGACAUGAGGAUCACCCAUGUAGAAGGCACGGAGA [AK-MS2ROC-r4-exclusion2-17] (Eterna round: R97, puzzle: Exclusion 2) | – | 291 | 85.5 | – |
| GAAUUAGUAGGAUAUACAUGAGGAUCACCCAUGUCUCAAACCAUGUACAGGAGAGGCUGUAGAAGGACUGAACA [Eternabot (Original) Solution 19] (Eterna round: R97, puzzle: Exclusion 3) | – | 36 | 31.7 | – |
| AAUUAUUAUUGAGGAUAUCGUAUUGAAACAAUAUGAGAAGGCGGGAUAAACAUGAGGAUCACCCAUGUGAGCCUGAUGCUUGUG [Ex NG1 #40] (Eterna round: R96, puzzle: Exclusion NG 1) | – | – | – | apparent KD of MS2 coat protein [4]: 15.3 nM |
| GACUCUCCCGUGAGGAUAUAUGAGGCCAUGAUUCCAUAGAAGGCACAUGAGGAUCACCCAUGUCGGGCAUAGCC [Eternabot (L2) Solution 8] (Eterna round: R97, puzzle: Brourd's mod of Exclusion 4) | – | 25.7 | 41.3 | – |
| AGAUUGUUAGGAUAUUCGGACCGCUACGAAGCGUGGUCCAGGGAGAAGGAACAUGAGGAUCACCCAUGUGACCA [Eternabot (L2) Solution 33] (Eterna round: R97, puzzle: Exclusion 4) | – | 69.7 | 26 | – |
| AAGAAACAUGAGGAUCACCCAUGUGAGGAUAUAGAAAGAAAGAAAAGAAAAGAAAGAACUAGAAGGCACAAAGA [JR_Exclu1_Sub030] (puzzle: Exclusion 1) | 26.4 | – | – | apparent KD of MS2 coat protein [1]: 26.2 nM; apparent KD of MS2 coat protein [3]: 30.8 nM |
| AACCUGAGGCAAAGCUUUAGGCUUACAUGAGGAUCACCCAUGUAGGAUAUGGUAGGCAAAGCUUACCAGAAGGACAUGGAAAUU [Mat - Exclusion NG 3 - Mod of JL - D24] (Eterna round: R96, puzzle: Exclusion NG 3) | – | 611 | 130 | apparent KD of MS2 coat protein [4]: 127 nM |
| ACAUGUCAUCGAGGAUAUUGGACACAUGAGGAUCACCCAUGUACUCGGUUGCUCUAGCAUGAGUUCGAGAAGGCGAUGUACAUU [Ex NG2 #80] (Eterna round: R96, puzzle: Exclusion NG 2) | – | 159 | 387 | apparent KD of MS2 coat protein [4]: 229 nM |
| UAAUAUCUGCAGGAUAUCGGUGUAGCACGCGUAUGAGAAGGGCAGACAUGAGGAUCACCCAUGUAUUAUAUCCG [Eternabot (L2) Solution 39] (Eterna round: R97, puzzle: Exclusion 6) | – | 34.8 | 24.5 | – |
| AUUGAUAGCACAGGAUAUUGAGAUUUGAAUUGACAAGAAGGGUGUACAUGAGGAUCACCCAUGUAAUGGCUGCCUCGUUGAUUA [JR_ExcNG1_Sub005] (Eterna round: R96, puzzle: Exclusion NG 1) | – | – | – | apparent KD of MS2 coat protein [4]: 45.6 nM |
| ACAUGAGGAUCACCCAUGUCUGGCUGGUCCGUCUCGGCUGUCGAGGAUAUGGCUCGGUGUCCGCGCUAGAAGGCGGGAGCUGGA [Aenatbe mod 78] (Eterna round: R96, puzzle: Exclusion NG 3) | – | 193 | 68.2 | apparent KD of MS2 coat protein [4]: 43 nM |
| CCUGUGCUAUAGGAUAUGGCUUAGCAAUAUGCGCCAGAAGGAUAGACAUGAGGAUCACCCAUGUACGACGAAGC [Eternabot (L2) Solution 65] (Eterna round: R97, puzzle: Exclusion 6) | – | 35.9 | 24.3 | – |
| GGUCCUCCGGAGGAUAUGGAACUGGAGGUAGUACCAGAAGGCCGAACAUGAGGAUCACCCAUGUGCCCGUAAAA [Aarlean] (puzzle: Exclusion 6) | 17 | – | – | apparent KD of MS2 coat protein [1]: 76.8 nM; apparent KD of MS2 coat protein [3]: 18.5 nM |
| ACAUGACUGCUAGGAUAUAGAUGACAUGAGGAUCACCCAUGUUGUCCCAUGUUGAUGGAAACCGACUAGAAGGAGCAGCAUAUG [Ex NG2 #11] (Eterna round: R96, puzzle: Exclusion NG 2) | – | 47.4 | 35 | apparent KD of MS2 coat protein [4]: 22.9 nM |
| AGUAACAGAGGAUAUACUAUUUUAUGUAUUUAUUAUUUUGAACAUGAGGAUCACCCAUGUAGAAGGCUGAAUAA [JMF 89] (puzzle: Exclusion 2) | 23.3 | – | – | – |
| CAAUGUGCUGAGGAUAUCUGCAGGUUGGGCCUGGGAGAAGGCGGCACAUGAGGAUCACCCAUGUGACCGAAAUA [EX6 A.17] (Eterna round: R97, puzzle: Exclusion 6) | – | 78.5 | 39.3 | – |
| GUUUGACAUGAGGAUCACCCAUGUAAGGAUAUACGAGUAGAUGAUAGAUAGAUAGUAUGUAGAAGGUACGUGUU [EX1 #61] (Eterna round: R97, puzzle: Exclusion 1) | – | 74.3 | 92.8 | – |
| CCCUCACAUGAGGAUCACCCAUGUCAGGAUAUCUAGUCAGACAGUGUAGCACUGCUGAAGAGAAGGGACGUAAA [Isinzare] (puzzle: Exclusion 1) | 15.9 | – | – | – |
| AAAACACAUGAGGAUCACCCAUGUGAGGAUAUGUUAAUUUUAAUGAAAAUUAAAAUUAACAGAAGGCACAGAAA [JR_Exclusion1_Sub024] (puzzle: Exclusion 1) | 45.6 | – | – | apparent KD of MS2 coat protein [1]: 46.3 nM; apparent KD of MS2 coat protein [3]: 54.2 nM |
| CGGAUGUGAGGAUAUACAUGAGGAUCACCCAUGUGAGCCAGCUAGCUGACUGGCUCGUGUAGAAGGCACGUCUG [JL-ex3-2.16 Brourd mod] (puzzle: Exclusion 3) | 14.2 | – | – | – |
| GGUGGACAUGAGGAUCACCCAUGUGAGGAUAUCGGCUGGCUAGUGGCUGACGGCUGCUCGAGAAGGCGCAUUGU [Exclusion 1 V86] (puzzle: Exclusion 1) | 54.7 | – | – | – |
| GGAUCGAGUGUGAGGAUAUACCACUGGAUACAGUGGUAGAAGGCACAUGAGGAUCACCCAUGUCCCUACGAUCC [Fiskers BMX 4 - 45] (puzzle: Brourd's mod of Exclusion 4) | 28.2 | – | – | – |
| CACUUGGUAGGAUAUGAAGGGAGGAACAUGAGGAUCACCCAUGUCCUGGAAUCCAGUCCGUCAGAAGGACCUGAGC [Eternabot (L1) Solution 44] (Eterna round: R97, puzzle: Exclusion 5) | – | 24.4 | 21.6 | – |

From the supplement of paper PMC9170038
